Key:
[1] = target: Tick-borne encephalitis virus (TBEV) soluble envelope protein E (sE) (Tick-borne encephalitis virus, strain Neudoerfl); experiment: crystal structure
[2] = target: Tick-borne encephalitis virus (TBEV) soluble envelope protein E (sE) (Tick-borne encephalitis virus, strain Neudoerfl); experiment: SEC-MALS
[3] = target: TBEV prMe-linker-sE single-chain construct (Tick-borne encephalitis virus, strain Neudoerfl); experiment: crystal structure; prMe-linker-sE single chain, crystallisation pH 3.5, PDB 7QRF
[4] = target: TBEV prMe-linker-sE single-chain protein (tick-borne encephalitis virus strain Neudoerfl) (UniProt P14336); experiment: crystal structure; uncleaved single-chain prMe-linker-sE; PDB 7QRF

Tick-borne encephalitis virus (TBEV) soluble envelope protein E (sE) (domain or fragment)
stoichiometry N [1]: 2
stoichiometry N [2]: 2

TBEV prMe-linker-sE single-chain construct
stoichiometry N [3]: 2

TBEV prMe-linker-sE single-chain protein (from UniProt P14336 2-401)
stoichiometry N [4]: 2

— article PMC9239988 (Nature Communications, 2022)
